In the supplement of paper PMC10126150:
± gives the standard deviation of the averaged measurements.

Test system: ATP
Experiment: switch fluorescence ratio, 500 uM ATP over buffer (Cy3 cluster intensity, sum of 5 cycles each) (fold (ratio)); higher = stronger signal-on switching upon ATP binding; sequences stand for … in TCGTCGGCAGCGTCAGATGTGTATAAGAGACAGTTTTTTTTTTTTTTTTTTTTTTTTT…TC
Conditions: aptamer strand: ATP DNA aptamer (quencher-CACCTGGGGGAGTATTGCGGAGGAAGG + anchor), 100 nM annealed; ATP concentration: 500 uM
Method in brief: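 Values give the fluorescence ratio for each switch-domain sequence, averaged from per-cluster ratios of summed target-cycle to summed buffer-cycle Cy3 intensity. The Cy3-labelled switching-strand clusters sat on a modified Illumina MiSeq flow-cell, were annealed to 100 nM quencher-labelled ATP aptamer, and were imaged in selection buffer, then after 15 min with 500 uM ATP at 22 °C. Five cycles ran with NaOH stripping and re-annealing between them, and clusters outside 100-1000 RFU were excluded.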
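Also: ATP exposure 15 min at 22 °C before imaging.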

Sequence	switch fluorescence ratio
AGGCTTGCGC	1.01 ± 0.037
AGGCTTTCCT	1.05 ± 0.04
AGGCTTTTAT	1.005 ± 0.0078
AGGGAAAAAT	1.06 ± 0.082
AGGGAAACTA	0.999 ± 0.013
AGGGAAAGGG	1.02 ± 0.02
AGGGAAATAA	0.987 ± 0.026
AGGGAACCCT	1.13 ± 0.03
AGGGAAGGAA	1.01 ± 0.037
AGGGAAGGAC	1.03 ± 0.029
AGGGAAGTCG	0.9751 ± 0.0093
AGGGAAGTTA	1.01 ± 0.014
AGGGACAAGG	1.014 ± 0.0095
AGGGACGTTC	0.967 ± 0.024
AGGGACTAGA	1 ± 0.025
AGGGACTGAC	1.24 ± 0.075
AGGGACTGTG	1.01 ± 0.073
AGGGACTTTA	1.0332 ± 0.00011
AGGGAGAAAC	0.984 ± 0.028
AGGGAGAAGA	1.005 ± 0.0077
AGGGAGAGAG	0.997 ± 0.022
AGGGAGAGCC	0.9957 ± 0.0041
AGGGAGATAA	1.14 ± 0.17
AGGGAGCTGG	0.998 ± 0.013
AGGGAGGGGG	1.01 ± 0.094

Sequence	switch fluorescence ratio
AGGGAGGGTG	1.02 ± 0.066
AGGGAGGTTG	1.01 ± 0.013
AGGGAGTAGG	1.12 ± 0.029
AGGGATAAAT	1.01 ± 0.055
AGGGATAGAT	0.99 ± 0.026
AGGGATGGTT	0.982 ± 0.013
AGGGATGTCT	1.02 ± 0.043
AGGGATGTTA	0.991 ± 0.014
AGGGATGTTG	0.995 ± 0.013
AGGGATTACG	1.01 ± 0.038
AGGGATTAGG	0.99 ± 0.034
AGGGATTAGT	0.991 ± 0.022
AGGGATTGCG	0.9971 ± 0.0093
AGGGATTGGT	0.952 ± 0.019
AGGGCAATAT	3.84 ± 0.48
AGGGCACGGT	0.983 ± 0.036
AGGGCAGTTG	0.97 ± 0.024
AGGGCATTCA	1.02 ± 0.046
AGGGCCTCTT	0.986 ± 0.028
AGGGCGCTAT	1.05 ± 0.042
AGGGCGGCTT	1 ± 0.032
AGGGCGTACA	0.992 ± 0.01
AGGGCTAAGG	0.9995 ± 0.0034
AGGGCTAATA	1.009 ± 0.0081
AGGGCTGTGT	0.999 ± 0.046

Sequence	switch fluorescence ratio
AGGGGACGGC	1.04 ± 0.0085
AGGGGAGAGA	1.04 ± 0.014
AGGGGAGTAG	0.99 ± 0.022
AGGGGATGCT	1.01 ± 0.016
AGGGGATTTG	0.999 ± 0.03
AGGGGCAACT	1 ± 0.048
AGGGGCGCCG	1 ± 0.06
AGGGGCGGTC	1.03 ± 0.014
AGGGGCGTGG	1.01 ± 0.046
AGGGGCTATA	0.9703 ± 0.0061
AGGGGCTCCG	1.02 ± 0.036
AGGGGGCATG	0.986 ± 0.023
AGGGGGCGAG	0.988 ± 0.018
AGGGGGCGCA	0.991 ± 0.051
AGGGGGCGCT	1.01 ± 0.043
AGGGGGCGTC	1.022 ± 0.0093
AGGGGGCTTT	0.985 ± 0.021
AGGGGGGAC	0.9875 ± 0.0048
AGGGGGGAGA	0.994 ± 0.026
AGGGGGGCCT	0.989 ± 0.087
AGGGGGGCGC	0.993 ± 0.033
AGGGGGGCTA	0.991 ± 0.038
AGGGGGGGAG	1.01 ± 0.053
AGGGGGGGGC	1.04 ± 0.13
AGGGGGTGCT	0.997 ± 0.028

Sequence	switch fluorescence ratio
AGGGGGTTCT	1.017 ± 0.0056
AGGGGGTTT	1.02 ± 0.024
AGGGGTAACT	0.996 ± 0.031
AGGGGTACAT	1.01 ± 0.033
AGGGGTACGC	0.95 ± 0.091
AGGGGTATTC	1.01 ± 0.049
AGGGGTGAGT	1.02 ± 0.04
AGGGGTGCCT	0.993 ± 0.013
AGGGGTGTGT	1.01 ± 0.019
AGGGGTGTT	1.02 ± 0.016
AGGGTAATTG	0.998 ± 0.036
AGGGTAGTAG	1.015 ± 0.0063
AGGGTATATC	1.05 ± 0.03
AGGGTCATTC	0.975 ± 0.017
AGGGTCCGAG	1.001 ± 0.0045
AGGGTCCTAC	1.02 ± 0.047
AGGGTCGCTG	1.016 ± 0.0011
AGGGTCGGAC	1.01 ± 0.012
AGGGTCTGAG	1.01 ± 0.026
AGGGTCTTTA	0.999 ± 0.012
AGGGTGAGCG	0.997 ± 0.022
AGGGTGAGGC	0.992 ± 0.06
AGGGTGAGGG	0.984 ± 0.042
AGGGTGGTAG	0.978 ± 0.035
AGGGTGTGAT	1.04 ± 0.026

Sequence	switch fluorescence ratio
AGGGTGTTAT	0.993 ± 0.022
AGGGTGTTTG	1.01 ± 0.019
AGGGTTAAAT	1 ± 0.012
AGGGTTAAGT	1.002 ± 0.0061
AGGGTTACGG	1.02 ± 0.025
AGGGTTATGT	0.971 ± 0.03
AGGGTTATTA	0.9786 ± 0.0025
AGGGTTATTT	0.998 ± 0.03
AGGGTTGGGC	1.01 ± 0.021
AGGGTTGTAT	1.001 ± 0.0037
AGGGTTGTTG	0.999 ± 0.015
AGGGTTTCTC	0.989 ± 0.0011
AGGGTTTGAG	1.11 ± 0.2
AGGGTTTGCT	0.96929 ± 0.00044
AGGGTTTTAG	0.994 ± 0.019
AGGTAAAAAG	1.02 ± 0.017
AGGTAAGGCT	0.976 ± 0.025
AGGTAATACA	1.08 ± 0.029
AGGTAATGCA	1.012 ± 0.0037
AGGTACGACG	0.99 ± 0.013
AGGTACGGAG	1.01 ± 0.019
AGGTACGTTT	1.03 ± 0.02
AGGTACTGTA	1.01 ± 0.011
AGGTAGAATG	0.998 ± 0.0045
AGGTAGATGG	0.995 ± 0.0096

Sequence	switch fluorescence ratio
AGGTAGCTGT	1.04 ± 0.053
AGGTAGGCAT	1 ± 0.041
AGGTAGGGTG	1.04 ± 0.055
AGGTATTCAG	1.01 ± 0.033
AGGTATTGG	1.008 ± 0.0055
AGGTATTGGG	1.02 ± 0.043
AGGTATTTGA	0.984 ± 0.054
AGGTCAGCTT	1.01 ± 0.04
AGGTCAGTAG	1 ± 0.024
AGGTCATTGA	1 ± 0.021
AGGTCCGGTG	1.031 ± 0.0096
AGGTCGATCC	0.993 ± 0.05
AGGTCGGATG	1.004 ± 0.0056
AGGTCGGCA	0.9919 ± 0.0092
AGGTCGGGGG	0.988 ± 0.029
AGGTGAAAAG	1.01 ± 0.02
AGGTGAAATC	1.26 ± 0.34
AGGTGAAATT	1.11 ± 0.1
AGGTGATGGG	1.04 ± 0.023
AGGTGATGTG	0.998 ± 0.028
AGGTGCATTT	1.08 ± 0.02
AGGTGCTTAC	1.04 ± 0.037
AGGTGGGAGT	1.02 ± 0.021
AGGTGGTACA	0.993 ± 0.03
AGGTGGTAGT	1 ± 0.012

Sequence	switch fluorescence ratio
AGGTGTAAAT	1.003 ± 0.0016
AGGTGTATTG	1.03 ± 0.017
AGGTGTTATC	0.9933 ± 0.0015
AGGTGTTCCG	1.04 ± 0.084
AGGTGTTTAA	1.03 ± 0.061
AGGTGTTTGC	1.05 ± 0.028
AGGTTAACTA	1.02 ± 0.024
AGGTTAAGTA	1 ± 0.027
AGGTTACAAT	1.04 ± 0.043
AGGTTACATC	1.018 ± 0.0016
AGGTTAGACG	1.01 ± 0.04
AGGTTAGATG	0.991 ± 0.013
AGGTTATACG	1.01 ± 0.022
AGGTTCTATT	0.9864 ± 0.0089
AGGTTGAAAG	0.974 ± 0.035
AGGTTGGGC	1.04 ± 0.034
AGGTTGGGGT	1.01 ± 0.036
AGGTTGGTTA	0.984 ± 0.029
AGGTTGTATG	0.97 ± 0.039
AGGTTGTGGG	1.02 ± 0.022
AGGTTGTTTT	0.977 ± 0.028
AGGTTTCTCT	0.966 ± 0.031
AGGTTTGCTC	1.01 ± 0.011
AGGTTTGGGA	0.987 ± 0.032
AGGTTTGGGT	0.998 ± 0.026

Sequence	switch fluorescence ratio
AGGTTTGTA	1.04 ± 0.016
AGGTTTGTGG	0.976 ± 0.023
AGGTTTGTTA	0.987 ± 0.015
AGGTTTTATT	0.948 ± 0.023
AGTAAAAAAT	0.9891 ± 0.0066
AGTAAAATT	0.9865 ± 0.0036
AGTAAAGTGG	0.971 ± 0.025
AGTAAAGTGT	0.99703 ± 0.00028
AGTAAATCTC	1.04 ± 0.017
AGTAACCAAA	1.04 ± 0.097
AGTAACGCGG	0.979 ± 0.014
AGTAAGAGAA	0.995 ± 0.023
AGTAAGATTG	0.9889 ± 0.0026
AGTAAGATTT	1.16 ± 0.15
AGTAAGCCAC	1.05 ± 0.082
AGTAAGGATC	1 ± 0.031
AGTAAGGCGC	1.02 ± 0.045
AGTAAGGGCA	1.01 ± 0.016
AGTAAGTATG	1.04 ± 0.054
AGTAAGTCGG	0.975 ± 0.022
AGTAAGTCTG	0.969 ± 0.02
AGTAATGAGG	0.985 ± 0.035
AGTAATTAGG	1.027 ± 0.0043
AGTAATTGAC	1.1 ± 0.013
AGTAATTGCG	0.982 ± 0.034
